For this test, the target named is purified human PCNA (human, UniProt P12004 1-261). In words: ELISA. For orientation: An ELISA detects its analyte on a solid surface through an enzyme-linked reagent.

Ends that are not written are not given here. * marks the point of attachment. Biotin = O=C1N[C@H]2[C@H](CS[C@H]2CCCCC(=O)*)N1

purified human PCNA, sequence (P12004 whole entry): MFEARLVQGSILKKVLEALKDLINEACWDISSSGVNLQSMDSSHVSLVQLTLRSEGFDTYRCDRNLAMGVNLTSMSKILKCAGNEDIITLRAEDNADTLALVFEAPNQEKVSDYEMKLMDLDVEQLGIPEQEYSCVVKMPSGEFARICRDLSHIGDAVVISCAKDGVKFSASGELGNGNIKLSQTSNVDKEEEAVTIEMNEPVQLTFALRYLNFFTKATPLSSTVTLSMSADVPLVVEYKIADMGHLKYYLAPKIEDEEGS

For the molecule Biotin-SGSGDPDCGCSRRGCVLRMIRRRN (cysteine pairing not given here) [pep102, biotinylated synthetic peptide], the binding result was “binds”.

For Biotin-SGSGKLFNLHINSAVLQKKITDYF [pogo, biotinylated peptide derived from the Drosophila Pogo transposase], the binding result is listed as “binds”.

Consider Biotin-SGSGDPLWCQSAVFLIRMWLRSRN [pep103, biotinylated synthetic peptide], for which the binding result is “binds”.

Source of the values: publication PMC2699888 (Oncogene, 2006).
